From article PMC2745324 (Biochemistry, 2009)
Like-named read-outs stand apart in the source and are kept apart here.

What was measured:
[1] = biological target: human adenylosuccinate lyase K246E mutant (human) (UniProt P30566)
[2] = biological target: human adenylosuccinate lyase K246E mutant (human) (UniProt P30566); assay: AUC
SEC = biological target: the molecule itself; assay: SEC
AUC [3] = biological target: the molecule itself; assay: AUC
AUC [4] = biological target: the molecule itself; assay: AUC; remark: listed apart in the source
AUC [5] = biological target: the molecule itself; assay: AUC; remark: listed apart in the source

| Molecule | Vmax of SAMP cleavage at 25 °C [1] [µmol/min/mg] | percent as dimer (D-12mer model) [2] [%] | stoichiometry N [2] | stoichiometry N (SEC) | percent as monomer (M-Tet model) (AUC [3]) [%] | percent as tetramer (M-Tet model) (AUC [3]) [%] | percent as monomer (M-Tet model) (AUC [4]) [%] | percent as tetramer (M-Tet model) (AUC [4]) [%] | stoichiometry N (AUC [5]) |
| --- | --- | --- | --- | --- | --- | --- | --- | --- | --- |
| human adenylosuccinate lyase K246E mutant (from UniProt P30566 1-481) (enzyme) | 0.23 | 94 | 2 |  |  |  |  |  |  |
| human adenylosuccinate lyase, wild type (enzyme) MAAGGDHGSPDSYRSPLASRYASPEMCFVFSDRYKFRTWRQLWLWLAEAEQTLGLPITDEQIQEMKSNLENIDFKMAAEEEKRLRHDVMAHVHTFGHCCPKAAGIIHLGATSCYVGDNTDLIILRNALDLLLPKLARVISRLADFAKERASLPTLGFTHFQPAQLTTVGKRCCLWIQDLCMDLQNLKRVRDDLRFRGVKGTTGTQASFLQLFEGDDHKVEQLDKMVTEKAGFKRAFIITGQTYTRKVDIEVLSVLASLGASVHKICTDIRLLANLKEMEEPFEKQQIGSSAMPYKRNPMRSERCCSLARHLMTLVMDPLQTASVQWFERTLDDSANRRICLAEAFLTADTILNTLQNISEGLVVYPKVIERRIRQELPFMATENIIMAMVKAGGSRQDCHEKIRVLSQQAASVVKQEGGDNDLIERIQVDAYFSPIHSQLDHLLDPSSFTGRASQQVQRFLEEEVYPLLKPYESVMKVKAE |  |  |  | 4 | 32 | 68 | 20 | 80 |  |
| human adenylosuccinate lyase R396H mutant (enzyme) MAAGGDHGSPDSYRSPLASRYASPEMCFVFSDRYKFRTWRQLWLWLAEAEQTLGLPITDEQIQEMKSNLENIDFKMAAEEEKRLRHDVMAHVHTFGHCCPKAAGIIHLGATSCYVGDNTDLIILRNALDLLLPKLARVISRLADFAKERASLPTLGFTHFQPAQLTTVGKRCCLWIQDLCMDLQNLKRVRDDLRFRGVKGTTGTQASFLQLFEGDDHKVEQLDKMVTEKAGFKRAFIITGQTYTRKVDIEVLSVLASLGASVHKICTDIRLLANLKEMEEPFEKQQIGSSAMPYKRNPMRSERCCSLARHLMTLVMDPLQTASVQWFERTLDDSANRRICLAEAFLTADTILNTLQNISEGLVVYPKVIERRIRQELPFMATENIIMAMVKAGGSHQDCHEKIRVLSQQAASVVKQEGGDNDLIERIQVDAYFSPIHSQLDHLLDPSSFTGRASQQVQRFLEEEVYPLLKPYESVMKVKAE |  |  |  |  | 34 | 66 |  |  | 4 |
| human adenylosuccinate lyase R396C mutant (enzyme) MAAGGDHGSPDSYRSPLASRYASPEMCFVFSDRYKFRTWRQLWLWLAEAEQTLGLPITDEQIQEMKSNLENIDFKMAAEEEKRLRHDVMAHVHTFGHCCPKAAGIIHLGATSCYVGDNTDLIILRNALDLLLPKLARVISRLADFAKERASLPTLGFTHFQPAQLTTVGKRCCLWIQDLCMDLQNLKRVRDDLRFRGVKGTTGTQASFLQLFEGDDHKVEQLDKMVTEKAGFKRAFIITGQTYTRKVDIEVLSVLASLGASVHKICTDIRLLANLKEMEEPFEKQQIGSSAMPYKRNPMRSERCCSLARHLMTLVMDPLQTASVQWFERTLDDSANRRICLAEAFLTADTILNTLQNISEGLVVYPKVIERRIRQELPFMATENIIMAMVKAGGSCQDCHEKIRVLSQQAASVVKQEGGDNDLIERIQVDAYFSPIHSQLDHLLDPSSFTGRASQQVQRFLEEEVYPLLKPYESVMKVKAE |  |  |  |  | 40 | 60 | 32 | 68 | 4 |
| human adenylosuccinate lyase R194C mutant (enzyme) MAAGGDHGSPDSYRSPLASRYASPEMCFVFSDRYKFRTWRQLWLWLAEAEQTLGLPITDEQIQEMKSNLENIDFKMAAEEEKRLRHDVMAHVHTFGHCCPKAAGIIHLGATSCYVGDNTDLIILRNALDLLLPKLARVISRLADFAKERASLPTLGFTHFQPAQLTTVGKRCCLWIQDLCMDLQNLKRVRDDLCFRGVKGTTGTQASFLQLFEGDDHKVEQLDKMVTEKAGFKRAFIITGQTYTRKVDIEVLSVLASLGASVHKICTDIRLLANLKEMEEPFEKQQIGSSAMPYKRNPMRSERCCSLARHLMTLVMDPLQTASVQWFERTLDDSANRRICLAEAFLTADTILNTLQNISEGLVVYPKVIERRIRQELPFMATENIIMAMVKAGGSRQDCHEKIRVLSQQAASVVKQEGGDNDLIERIQVDAYFSPIHSQLDHLLDPSSFTGRASQQVQRFLEEEVYPLLKPYESVMKVKAE |  |  |  | 4 | 33 | 67 | 37 | 63 |  |
| human adenylosuccinate lyase L311V mutant (enzyme) MAAGGDHGSPDSYRSPLASRYASPEMCFVFSDRYKFRTWRQLWLWLAEAEQTLGLPITDEQIQEMKSNLENIDFKMAAEEEKRLRHDVMAHVHTFGHCCPKAAGIIHLGATSCYVGDNTDLIILRNALDLLLPKLARVISRLADFAKERASLPTLGFTHFQPAQLTTVGKRCCLWIQDLCMDLQNLKRVRDDLRFRGVKGTTGTQASFLQLFEGDDHKVEQLDKMVTEKAGFKRAFIITGQTYTRKVDIEVLSVLASLGASVHKICTDIRLLANLKEMEEPFEKQQIGSSAMPYKRNPMRSERCCSLARHVMTLVMDPLQTASVQWFERTLDDSANRRICLAEAFLTADTILNTLQNISEGLVVYPKVIERRIRQELPFMATENIIMAMVKAGGSRQDCHEKIRVLSQQAASVVKQEGGDNDLIERIQVDAYFSPIHSQLDHLLDPSSFTGRASQQVQRFLEEEVYPLLKPYESVMKVKAE |  |  |  | 4 | 32 | 68 | 40 | 60 |  |
